*1 amine or outer side, *2 acyl side, *3 side chain or, on linkers, in order; H or OH if unused. Primed or numbered codes have the meaning given here. Where no end group is shown, it is not given here. [ ]: non-standard residue; d: D form. The star is where a group is joined. X1 = 4‑(2′-methylphenyl)‑3‑pyridylalanine, Cc1ccccc1-c1ccncc1C[C@H](N[*:1])C(=O)[*:2]; Bip(2′-Et-4′-OH-5′-I) = CCc1cc(O[*:3])c(I)cc1-c1ccc(C[C@H](N[*:1])C(=O)[*:2])cc1; Phe(4-(2-Et-4-HO-Ph)) = CCc1cc(O)ccc1-c1ccc(C[C@H](N)C(=O)O)cc1; IMeOp = 3-(1H-imidazol-4-yl)-2-methoxypropanoyl; αMePhe(2-F) = C[C@](N)(Cc1ccccc1F)C(=O)O; αMeP = C[C@@]1(C(=O)O)CCCN1; Moc = COC(=O)*
T1: Mouse GLP-1 Receptor (Mus musculus, UniProt O35659)
T1 construct: expressed in transfected cells; host or cells: CHO cells
T1 sequence (O35659 22-463): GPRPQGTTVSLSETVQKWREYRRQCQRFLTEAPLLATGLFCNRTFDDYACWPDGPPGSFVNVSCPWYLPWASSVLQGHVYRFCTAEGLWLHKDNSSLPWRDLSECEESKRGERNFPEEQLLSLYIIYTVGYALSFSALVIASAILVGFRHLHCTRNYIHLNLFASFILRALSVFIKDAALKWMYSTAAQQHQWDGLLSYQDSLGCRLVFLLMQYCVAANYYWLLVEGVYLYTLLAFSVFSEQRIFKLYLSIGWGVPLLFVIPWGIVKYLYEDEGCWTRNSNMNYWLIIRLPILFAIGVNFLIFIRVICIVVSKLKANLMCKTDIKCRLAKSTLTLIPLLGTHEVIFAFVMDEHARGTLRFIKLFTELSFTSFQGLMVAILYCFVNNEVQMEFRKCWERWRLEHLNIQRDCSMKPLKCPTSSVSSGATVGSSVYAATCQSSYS

T2: Mouse GLP-1 Receptor (mouse, UniProt O35659 22-463)
T2 sequence (looked up): T1 sequence (O35659 22-463)


How the values were obtained:
[1] = molecular target: T1, Mouse GLP-1 Receptor; assay: Stimulation of cAMP synthesis in CHO cells expressing mouse GLP-1 receptor; format: cell-based; conditions: for Emax: CHO, percent of maximal GLP-1 stimulated activity
Protocol: (§1) CHO-GLP-1R-19 cells (20,000 in 100 μl of media) were plated into each well of a 96-well tissue culture microtiter plate and incubated overnight in a 5% CO2 atmosphere at 37° C. On the day of the assay, cells were washed once with 100 μl of phosphate-buffered saline (PBS). A Biomek 2000 was used to serially dilute all peptides prior to beginning the assay. Serial dilutions were carried out in 100% DMSO.
(§2) 50 μl of each cAMP standard was added by hand and 70 μl of mix reagent (Amersham cAMP SPA kit) was added using the multidrop. […] This standard curve was used to convert CPM to pmol of cAMP.
(§3) Cell plates and peptide plates were loaded onto the Platemate. The media was aspirated from the wells and discarded. 100 uL per well of the peptide/buffer mixture were then added from the peptide plates to initiate the assay. After 30 min. of incubation the peptide/buffer was removed and 50 uL of the lysis reagent 1 solution was added per well. The plate was kept for one hour at RT or overnight if refrigerated and sealed.
(§4) Dose dependence for Compounds was determined at half-log concentrations in duplicate. […] A standard curve was determined using known amounts of cyclic AMP. […] The data were analyzed by nonlinear regression curve fitting (4 parameter sigmoidal dose-response curve) to determine the EC50 of the compounds.

[2] = molecular target: T3, Human GLP-1 Receptor (Homo sapiens, UniProt P43220); assay: Cyclic AMP determination in CHO cells expressing human GLP-1 receptor; format: cell-based; conditions: for Emax: CHO, percent of maximal GLP-1 stimulated activity; for Emax / Mean Hill: human GLP-1 receptor
T3 construct: Full-length human glucagon-like peptide 1 receptor was stably expressed in CHO-K1 cells; expressed in transfected cells; host or cells: CHO-K1 (clone CHO-GLP1R-19)
Protocol: as §1, §2, §3, §4

[3] = molecular target: Full-length human glucagon-like peptide 1 receptor (human, UniProt P43220 24-463); assay: cell-based or functional assay
[4] = molecular target: T2, Mouse GLP-1 Receptor; assay: cell-based or functional assay

T3 sequence (P43220 24-463): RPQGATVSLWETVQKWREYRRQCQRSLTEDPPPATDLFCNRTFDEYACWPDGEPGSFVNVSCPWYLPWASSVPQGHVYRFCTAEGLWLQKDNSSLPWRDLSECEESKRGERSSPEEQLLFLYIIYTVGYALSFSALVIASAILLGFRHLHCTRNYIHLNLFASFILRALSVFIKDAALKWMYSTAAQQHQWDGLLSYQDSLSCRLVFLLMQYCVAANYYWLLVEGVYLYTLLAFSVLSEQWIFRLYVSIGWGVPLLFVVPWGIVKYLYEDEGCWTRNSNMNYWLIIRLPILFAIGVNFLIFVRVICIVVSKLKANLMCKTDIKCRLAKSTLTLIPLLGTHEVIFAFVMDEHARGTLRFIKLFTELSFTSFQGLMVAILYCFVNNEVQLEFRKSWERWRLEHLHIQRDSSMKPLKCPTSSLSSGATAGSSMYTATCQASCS

| Molecule | Mean Hill [1] | Emax [1] [%] | Emax [2] [%] | Mean Hill [2] | EC50 [2] [nM] | Mean EC50 (nM), stimulation of cAMP synthesis in CHO cells [3] [nM] | Mean Emax (%), stimulation of cAMP synthesis in CHO cells [3] [%] | Mean EC50 (nM), stimulation of cAMP synthesis in CHO cells [4] [nM] | Mean Emax (%), stimulation of cAMP synthesis in CHO cells [4] [%] |
| --- | --- | --- | --- | --- | --- | --- | --- | --- | --- |
| [IMeOp][αMeP]EGT[αMePhe(2-F)]TSD[Phe(4-(2-Et-4-HO-Ph))][X1]-NH2 (also: IMeOp configuration (S or R) not determined) [Compound of SEQ ID NO: 174 (or 173)*] |  |  |  |  |  | 0.024 | 104 | 0.273 | 105 |
| [IMeOp][αMeP]EGT[αMePhe(2-F)]THD[Phe(4-(2-Et-4-HO-Ph))][X1]-NH2 (also: IMeOp configuration (R or S) not determined) [Compound of SEQ ID NO: 175 (or 176)*] |  |  |  |  |  | 0.03 | 105 | 0.084 | 100 |
| Moc-H[αMeP]EGT[αMePhe(2-F)]TSD[Phe(4-(2-Et-4-HO-Ph))][X1]-NH2 [Compound of SEQ ID NO: 158] |  |  |  |  |  | 0.018 | 101 | 0.191 | 101 |
| Moc-H[αMeP]EGT[αMePhe(2-F)]TSD[Bip(2′-Et-4′-OH-5′-I)][X1]-NH2 [Compound of SEQ ID NO: 164] |  |  |  |  |  | 0.01 | 97.2 | 0.055 | 103 |
| [IMeOp][αMeP]EGT[αMePhe(2-F)]TSD[Phe(4-(2-Et-4-HO-Ph))][X1]-NH2 (also: IMeOp configuration (R or S) not determined) [Compound of SEQ ID NO: 173 (or 174)*] |  |  |  |  |  | 0.018 | 95.6 | 0.114 | 99.7 |

Second part, the molecule after the results:

| Mean Hill [1] | Emax [1] [%] | Emax [2] [%] | Mean Hill [2] | EC50 [2] [nM] | Mean EC50 (nM), stimulation of cAMP synthesis in CHO cells [3] [nM] | Mean Emax (%), stimulation of cAMP synthesis in CHO cells [3] [%] | Mean EC50 (nM), stimulation of cAMP synthesis in CHO cells [4] [nM] | Mean Emax (%), stimulation of cAMP synthesis in CHO cells [4] [%] | Molecule |
| --- | --- | --- | --- | --- | --- | --- | --- | --- | --- |
| 1.4 | 99.7 | 95.6 | 2.6 |  |  |  |  |  | CCc1cc(O)ccc1-c1ccc(C[C@H](NC(=O)[C@H](CC(=O)O)NC(=O)[C@H](CO)NC(=O)[C@@H](NC(=O)[C@](C)(Cc2ccccc2F)NC(=O)[C@@H](NC(=O)CNC(=O)[C@H](CCC(=O)O)NC(=O)[C@]2(C)CCCN2C(=O)C(Cc2c[nH]cn2)OC)[C@@H](C)O)[C@@H](C)O)C(=O)N[C@@H](Cc2ccc(-c3ccccc3C)nc2)C(N)=O)cc1 (single isomer, unassigned) [SEQ ID NO: 173] |
| 2.1 |  |  | 2.7 |  |  |  |  |  | CCc1cc(O)ccc1-c1ccc(C[C@H](NC(=O)[C@H](CC(=O)O)NC(=O)[C@H](CO)NC(=O)[C@@H](NC(=O)[C@](C)(Cc2ccccc2F)NC(=O)[C@@H](NC(=O)CNC(=O)[C@H](CCC(=O)O)NC(=O)[C@]2(C)CCCN2C(=O)C(Cc2c[nH]cn2)OC)[C@@H](C)O)[C@@H](C)O)C(=O)N[C@@H](Cc2ccc(-c3ccccc3C)nc2)C(N)=O)cc1 (single isomer, unassigned) [SEQ ID NO: 174] |
| 2.7 | 100 | 105 | 2.8 |  |  |  |  |  | CCc1cc(O)ccc1-c1ccc(C[C@H](NC(=O)[C@H](CC(=O)O)NC(=O)[C@H](Cc2c[nH]cn2)NC(=O)[C@@H](NC(=O)[C@](C)(Cc2ccccc2F)NC(=O)[C@@H](NC(=O)CNC(=O)[C@H](CCC(=O)O)NC(=O)[C@]2(C)CCCN2C(=O)C(Cc2c[nH]cn2)OC)[C@@H](C)O)[C@@H](C)O)C(=O)N[C@@H](Cc2ccc(-c3ccccc3C)nc2)C(N)=O)cc1 (single isomer, unassigned) [SEQ ID NO: 175] |
| 1.9 |  |  | 3.1 |  |  |  |  |  | CCc1cc(O)ccc1-c1ccc(C[C@H](NC(=O)[C@H](CC(=O)O)NC(=O)[C@H](Cc2c[nH]cn2)NC(=O)[C@@H](NC(=O)[C@](C)(Cc2ccccc2F)NC(=O)[C@@H](NC(=O)CNC(=O)[C@H](CCC(=O)O)NC(=O)[C@]2(C)CCCN2C(=O)C(Cc2c[nH]cn2)OC)[C@@H](C)O)[C@@H](C)O)C(=O)N[C@@H](Cc2ccc(-c3ccccc3C)nc2)C(N)=O)cc1 (single isomer, unassigned) [SEQ ID NO: 176] |
| 2.7 | 103 | 97.2 | 1.5 | 0.01 |  |  |  |  | CCc1cc(O)c(I)cc1-c1ccc(C[C@H](NC(=O)[C@H](CC(=O)O)NC(=O)[C@H](CO)NC(=O)[C@@H](NC(=O)C(C)(Cc2ccccc2F)NC(=O)[C@@H](NC(=O)CNC(=O)[C@H](CCC(=O)O)NC(=O)C2(C)CCCN2C(=O)[C@H](Cc2c[nH]cn2)NC(=O)OC)[C@@H](C)O)[C@@H](C)O)C(=O)N[C@@H](Cc2ccc(-c3ccccc3C)nc2)C(N)=O)cc1 (some centres unmarked) [SEQ ID NO: 164] |
|  |  |  |  |  | 0.03 | 95.8 | 0.126 | 105 | [IMeOp][αMeP]EGT[αMePhe(2-F)]THD[Phe(4-(2-Et-4-HO-Ph))][X1]-NH2 (also: IMeOp configuration (S or R) not determined) [Compound of SEQ ID NO: 176 (or 175)*] |
